Test results published in patent US20020025510A1, “Screening methods based on superactivated alpha V beta 3 integrin” (priority 2000, published 2002).
Blank lines part the entries; values can stand above or below the compound they belong to.

Experiments:
β3 integrin subunit = assay: Immunoprecipitation and Western blotting of the β3 integrin subunit from surface-biotinylated cells; assay type: cell-based, human; conditions: cells incubated with 50 μM for 48 hours; precipitated with mAb L230; 90 kDa without inhibitor
Method: Immunoprecipitation and Western blotting were performed as follows. Confluent cells were surface biotinylated with 0.1 mg/ml of Sulfo-NHS-LC-Biotin (Pierce, Rockford, Ill.). Where indicated, the cells were incubated prior to biotinylation with 50 μM Batimastat for 48 hours in AIM-V medium (GibcoBRL). Cells were solubilized at 10^7/ml in lysis buffer (50 mM n-octyl-(-D-glucopyranoside in 50 mM TBS, pH 7.4/1 mM CaCl2/1 mM MgCl2/1 mM PMSF/10 μg/ml leupeptin/10 μg/ml pepstatin) for one hr on ice. Insoluble material was removed by centrifugation. Supernatants were precleared for two hours at 4° C. with Protein A-Agarose (Calbiochem, La Jolla, Calif.). Precleared supernatants (100-150 μl) were incubated overnight at 4° C. with 3 μg of the indicated antibodies. The immune complexes were collected on Protein A-Agarose 15 μl of a 50% slurry) during a two hour incubation at room temperature. Following washes with washing buffer (50 mM Tris, pH 7.4/0.5 M NaCl/0.1% Tween 20), the beads were treated with 4% SDS in 125 mM Tris, pH 6.8/20% glycerol buffer, and boiled. […]

[1] = molecular target: integrin αvβ3 with the wild type β3 subunit, on β3-MCF7 cells (human) (UniProt P06756); assay: flow cytometry, β3-MCF7 cells stained with 5 µg/ml LM609, n=11
Sequence of UniProt P06756 (P06756 31-1048 limits assumed, chain 1 of 2): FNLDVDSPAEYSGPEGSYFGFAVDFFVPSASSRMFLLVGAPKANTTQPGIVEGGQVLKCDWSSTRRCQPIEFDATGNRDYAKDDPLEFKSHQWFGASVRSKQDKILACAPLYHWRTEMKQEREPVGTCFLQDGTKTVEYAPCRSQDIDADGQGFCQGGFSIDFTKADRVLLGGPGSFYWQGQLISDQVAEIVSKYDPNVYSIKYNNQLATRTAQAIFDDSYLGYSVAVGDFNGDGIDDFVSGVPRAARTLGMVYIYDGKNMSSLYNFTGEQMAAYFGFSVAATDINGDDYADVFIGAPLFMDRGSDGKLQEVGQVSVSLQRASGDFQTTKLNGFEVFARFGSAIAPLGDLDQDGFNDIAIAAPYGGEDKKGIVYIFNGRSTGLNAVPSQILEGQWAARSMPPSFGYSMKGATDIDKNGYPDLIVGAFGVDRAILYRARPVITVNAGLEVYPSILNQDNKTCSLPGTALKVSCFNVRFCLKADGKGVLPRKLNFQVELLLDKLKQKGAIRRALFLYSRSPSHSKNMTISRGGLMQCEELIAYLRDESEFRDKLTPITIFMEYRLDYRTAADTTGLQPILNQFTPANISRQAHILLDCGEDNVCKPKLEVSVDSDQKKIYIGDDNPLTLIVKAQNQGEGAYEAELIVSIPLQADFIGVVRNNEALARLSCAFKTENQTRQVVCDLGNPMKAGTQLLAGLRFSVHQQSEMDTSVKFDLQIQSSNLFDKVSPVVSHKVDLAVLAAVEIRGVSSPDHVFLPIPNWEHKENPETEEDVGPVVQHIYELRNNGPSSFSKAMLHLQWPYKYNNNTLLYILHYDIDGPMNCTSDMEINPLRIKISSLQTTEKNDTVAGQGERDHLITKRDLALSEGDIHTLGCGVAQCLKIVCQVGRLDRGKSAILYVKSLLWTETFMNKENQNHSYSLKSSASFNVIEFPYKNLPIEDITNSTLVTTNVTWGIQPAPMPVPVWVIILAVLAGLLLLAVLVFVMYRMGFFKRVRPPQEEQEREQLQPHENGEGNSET
Sequence of UniProt P06756 (chain, as listed by the source limits assumed, chain 2 of 2): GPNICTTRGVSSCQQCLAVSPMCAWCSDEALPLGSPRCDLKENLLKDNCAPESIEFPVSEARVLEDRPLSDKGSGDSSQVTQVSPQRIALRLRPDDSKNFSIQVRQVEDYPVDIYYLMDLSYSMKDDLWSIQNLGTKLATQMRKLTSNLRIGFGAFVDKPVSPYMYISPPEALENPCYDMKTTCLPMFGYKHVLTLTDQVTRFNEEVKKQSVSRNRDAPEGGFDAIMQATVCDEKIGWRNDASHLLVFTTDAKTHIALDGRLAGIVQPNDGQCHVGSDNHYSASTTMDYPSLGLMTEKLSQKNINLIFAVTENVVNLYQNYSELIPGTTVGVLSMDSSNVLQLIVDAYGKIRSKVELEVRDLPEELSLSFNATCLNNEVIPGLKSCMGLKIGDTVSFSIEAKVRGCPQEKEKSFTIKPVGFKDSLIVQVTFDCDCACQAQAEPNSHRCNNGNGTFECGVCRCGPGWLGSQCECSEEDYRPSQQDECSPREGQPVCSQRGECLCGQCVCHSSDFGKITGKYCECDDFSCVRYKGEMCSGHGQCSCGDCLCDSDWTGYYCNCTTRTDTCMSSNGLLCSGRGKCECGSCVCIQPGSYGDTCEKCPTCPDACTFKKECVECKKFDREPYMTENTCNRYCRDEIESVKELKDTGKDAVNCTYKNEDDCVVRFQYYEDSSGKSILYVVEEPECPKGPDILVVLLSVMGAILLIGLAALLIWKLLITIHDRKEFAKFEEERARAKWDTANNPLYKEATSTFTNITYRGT

[2] = molecular target: integrin αvβ3 modified by MT1-MMP, on β3/MT-MCF7 cells (human) (UniProt P06756); assay: flow cytometry, β3/MT-MCF7 cells stained with 5 µg/ml LM609, n=11
[3] = molecular target: integrin αvβ3 modified by MT1-MMP, on β3/MT-MCF7 cells (human) (UniProt P06756); assay: cell-based or functional assay

Compound: CNC(=O)[C@H](Cc1ccccc1)NC(=O)[C@H](CC(C)C)[C@H](CSc1cccs1)C(=O)NO [Batimastat]
Apparent molecular mass of the β3 integrin subunit from β3/MT-MCF7 cells (β3 integrin subunit): 95 kDa

mean fluorescence intensity [1]: 38.7
mean fluorescence intensity [2]: 35.5
Compound: murine mAb LM609 specific to integrin αvβ3 (antibody)

cells migrating to the vitronectin-coated membrane undersurface (Transwell, 48 hours) [3]: 23300 cells
Compound: vitronectin (from UniProt P04004 20-478) (ligand)
